The values that follow are results of earlier work, collected in paper PMC12787518.

For one data set, the target named is His31 (UniProt position 31, TIGIGHLLTKS).
In the next data set the target is Asp70 (UniProt position 70, KLFNQDVDAAV). To be noted: folded (native, Asp70-His31 salt bridge formed).

Like-named read-outs stand apart in the source and are kept apart here.

In the case of “T4 lysozyme (Enterobacteria phage T4 (Tequatrovirus T4))”, the pKa (as a rule, the pH at which an ionisable group is half protonated) with His31 (folded (native, Asp70-His31 salt bridge formed)) is 9.1; with His31 (unfolded (before folding, no salt bridge), inferred from the wording 'during ... folding') it was 6.8; with Asp70 it was 0.5.
